According to US20260151494A1 (ARO BIOTHERAPEUTICS, published 2026):

What was measured:
[1] = target: T1, apical domain of human CD71 (human, UniProt P02786 189-383, limits assumed); assay: primary ELISA; also: test concentration or dose not given here
T1 construct: domain: apical domain; Screen 4 panned on human apical domains, the ELISA text says only 'apical domain'

[2] = target: T2, human CD71 extracellular domain (human, UniProt P02786 89-760, biotinylated); assay: primary ELISA; also: test concentration or dose not given here
T2 construct: also called hCD71; CD71-ECD
T2 sequence (P02786 89-760): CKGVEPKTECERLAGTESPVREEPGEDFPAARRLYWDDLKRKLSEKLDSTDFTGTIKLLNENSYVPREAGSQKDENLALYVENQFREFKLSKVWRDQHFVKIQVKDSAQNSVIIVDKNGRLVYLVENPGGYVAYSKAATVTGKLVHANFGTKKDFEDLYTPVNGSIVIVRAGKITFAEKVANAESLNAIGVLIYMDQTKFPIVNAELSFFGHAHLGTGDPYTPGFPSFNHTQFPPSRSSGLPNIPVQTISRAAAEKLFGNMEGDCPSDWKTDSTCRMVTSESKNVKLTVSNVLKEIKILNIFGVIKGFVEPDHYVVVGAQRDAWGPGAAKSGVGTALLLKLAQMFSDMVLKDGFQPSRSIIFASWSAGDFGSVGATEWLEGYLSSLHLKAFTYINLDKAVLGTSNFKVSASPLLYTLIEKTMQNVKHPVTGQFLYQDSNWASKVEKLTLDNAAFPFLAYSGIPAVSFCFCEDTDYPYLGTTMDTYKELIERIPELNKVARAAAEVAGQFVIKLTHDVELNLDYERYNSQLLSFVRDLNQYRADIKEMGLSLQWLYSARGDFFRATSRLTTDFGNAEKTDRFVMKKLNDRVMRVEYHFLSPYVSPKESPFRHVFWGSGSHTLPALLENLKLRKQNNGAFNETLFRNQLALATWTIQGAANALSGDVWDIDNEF

[3] = target: T1, apical domain of human CD71; assay: primary ELISA, RLU over HSA
[4] = target: T2, human CD71 extracellular domain; assay: primary ELISA, RLU over HSA

T1 sequence (P02786 189-383 limits assumed): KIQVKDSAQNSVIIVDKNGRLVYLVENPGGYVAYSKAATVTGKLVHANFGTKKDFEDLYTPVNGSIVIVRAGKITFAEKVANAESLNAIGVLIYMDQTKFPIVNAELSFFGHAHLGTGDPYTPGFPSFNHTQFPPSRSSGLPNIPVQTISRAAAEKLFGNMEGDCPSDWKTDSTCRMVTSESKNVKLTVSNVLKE

Binder	RLU [1]	RLU [2]	Apical domain:HSA [3]	hCD71:HSA [4]
CD71-binding FN3 domain of SEQ ID NO: 519 (designed binder) MLPAPKNLVVSRVTEDSARLSWTAPDAAFDSFPIAYPEHLPPGEAIVLTVPGSERSYDLTGLKPGTEYPVNIRGVKGGFVSFPLSAIFTT	5.24e+06 RLU	3.24e+06 RLU	253	156
CD71-binding FN3 domain of SEQ ID NO: 477 (designed binder) MLPAPKNLVVSRVTEDSARLSWTAPDAAFDSFEIAYFETCRTGEAIVLTVPGSERSYDLTGLKPGTEYGVSIYGVKGGAHSGPLSAIFTT	2.4e+06 RLU	1.88e+06 RLU	370	289
CD71-binding FN3 domain of SEQ ID NO: 484 (designed binder) MLPAPKNLVVSRVTEDSARLSWTAPDAAFDSFEIAYQELSLWGEAIVLTVPGSERSYDLTGLKPGTEYYVHIGGVKGGIWSSPLSAISTT	4.69e+06 RLU	1.47e+06 RLU	113	35
CD71-binding FN3 domain of SEQ ID NO: 455 (designed binder) MLPAPKNLVVSRVTEDSARLSWTAPDAAFDSFTISYPEEAKHGEAIVLTVPGSERSYDLTGLKPGTEYGVPINGVKGGVSSLPLSAIFTT	4.83e+06 RLU	1.56e+06 RLU	171	55
CD71-binding FN3 domain of SEQ ID NO: 495 (designed binder) MLPAPKNLVVSRVTEDSARLSWTAPDAAFDSFFINYREDKWIGEAIVLTVPGSERSYDLTGLKPGTEYSVPIDGVKGGAASPPLSAIFTT	4.03e+06 RLU	1.14e+06 RLU	504	142
CD71-binding FN3 domain of SEQ ID NO: 463 (designed binder) MLPAPKNLVVSRVTEDSARLSWTAPDAAFDSFLILYIEQDHRGEAIVLTVPGSERSYDLTGLKPGTEYWVHITGVKGGYYSAPLSAIFTT	5.51e+06 RLU	5.62e+06 RLU	89	91
CD71-binding FN3 domain of SEQ ID NO: 488 (designed binder) MLPAPKNLVVSRVTEDSARLSWTAPDAAFDSFIIQYGEYLRWGEAIVLTVPGSERSYDLTGLKPGTEYQVEIYGVKGGPLSKPLSAIFTT	6.14e+06 RLU	3.18e+06 RLU	103	53
CD71-binding FN3 domain of SEQ ID NO: 489 (designed binder) MLAPKNLVVSRVTEDSARLSWTAPDAAFDSFFIGYLEPQPPGEAISLLVPGSERSYDLTGLKPGTEYNVTIQGVKGGFPSSPLLAGFTT	4.06e+06 RLU	2.81e+06 RLU	340	235
CD71-binding FN3 domain of SEQ ID NO: 458 (designed binder) MLPAPKNLVVSRVTEDSARLSWTAPDAAFDSFLDLLPSNWDIAGEAIVLTVPGSERSYDLTGLKPGTEYHVNILGVKGGKESLPLVANFTT	4.64e+06 RLU	3.44e+06 RLU	69	51
CD71-binding FN3 domain of SEQ ID NO: 480 (designed binder) MLPAPKNLVVSRVTEDSARLSWTAPDAAFDSFEIDYAEDIREGEAIALVVPGSERSYDLTGLKPGTEYWVSIGGVKGGTWSRPLFAPFTT	4.27e+06 RLU	1.66e+06 RLU	181	70
CD71-binding FN3 domain of SEQ ID NO: 468 (designed binder) MLPAPKNLVVSRVTEDSARLSWTAPDAAFDSFLIQYDEEGVWGEAIVLTVPGSERSYDLTGLKPGTEYSVGIGGVKGGWSSVPLSAIFTT	3.58e+06 RLU	1.05e+06 RLU	24	71
CD71-binding FN3 domain of SEQ ID NO: 509 (designed binder) MLPAPKNLVVSRVTEDSARLSWTAPDAAFDSFEIGYWENAYKGEAIVLTVPGSERSYDLTGLKPGTEYEVFIGGVKGGVWSVPLSAIFTT	4.6e+06 RLU	1.74e+06 RLU	353	134
CD71-binding FN3 domain of SEQ ID NO: 503 (designed binder) MLPAPKNLVVSRVTEDSARLSWTAPDAAFDSFEISYFETSWHGEAIVLTVLGSERSYDLTGLKPGTEYRVYIGGVKGGSWSQPLSAIFTT	2.26e+06 RLU	2.35e+06 RLU	145	150
CD71-binding FN3 domain of SEQ ID NO: 506 (designed binder) MLPAPKNLVVSRVTEDSARLSWTAPDAAFDSFEIGYWENAYKGEAIVLTVPGSERSYDLTGLKPGTEYVVFIGGVKGGVWSVPLSAISTT	4.74e+06 RLU	1.64e+06 RLU	112	39
CD71-binding FN3 domain of SEQ ID NO: 466 (designed binder) MLPAPKNLVVSRVTEDSARLSWTAPDAAFDSFYIAYAEPRPDGEAIWLLVPGSERSYDLTGLKPGTEYSVLIHGVKGGLLSSPLSADFTT	4.3e+06 RLU	1.08e+06 RLU	279	70
CD71-binding FN3 domain of SEQ ID NO: 471 (designed binder) MLPAPKNLVVSRVTEDSARLSWTAPDAAFDSFTIWYYESPTGGEAIVLTVPGSERSYDLTGLKPGTEYMVFIQGVKGGCFSTPLYAIFTT	3.88e+06 RLU	1.65e+06 RLU	98	42
CD71-binding FN3 domain of SEQ ID NO: 510 (designed binder) MLPAPKNLVVSRVTEDSARLSWTAPDAAFDSFFIAYGESPESGEAIVLTVPGSERSYDLTGLKPGTEYLVWIAGVKGGYYSDPLSAIFTT	5.21e+06 RLU	3.39e+06 RLU	404	263

The next lines start with the values.

RLU [1]	RLU [2]	Apical domain:HSA [3]	hCD71:HSA [4]	Binder
3.26e+06 RLU	2.99e+06 RLU	154	141	CD71-binding FN3 domain of SEQ ID NO: 536 (designed binder) MLPAPKNLVVSRVTEDSARLSWTAPDAAFDSFDIGYTETVSFGEAIVLTVPGSERSYDLTGLKPGTEYIVKILGVKGGFASFPLSAIFTT
4.93e+06 RLU	5.57e+06 RLU	164	185	CD71-binding FN3 domain of SEQ ID NO: 538 (designed binder) MLPAPKNLVVSRVTEDSARLSWTAPDAAFDSFFIGYLEPQPPGEAIDLYVPGSERSYDLTGLKPGTEYNVTIQGVKGGFPSHPLVAVFTT
3e+06 RLU	2.13e+06 RLU	237	169	CD71-binding FN3 domain of SEQ ID NO: 542 (designed binder) MLPAPKNLVVSRVTEDSARLSWTAPDAAFDSFFIGYLEPQPPGEAIELFVPGSERSYDLTGLKPGTEYNVTIQGVKGGFPSMPLSAIFTT
3.42e+06 RLU	1.79e+06 RLU	140	73	CD71-binding FN3 domain of SEQ ID NO: 541 (designed binder) MLPAPKNLVVSRVTEDSARLSWTAPDAAFDSFFIGYLEPQPPGEAIDLWVPGSERSYDLTGLKPGTEYNVTIQGVKGGFPSMPLDAYFTT
4.07e+06 RLU	4.04e+06 RLU	243	241	CD71-binding FN3 domain of SEQ ID NO: 544 (designed binder) MLPAPKNLVVSRVTEDSARLSWTAPDAAFDSFFIGYLEPQPPGEAIALLVPGSERSYDLTGLKPGTEYNVTIQGVKGGFPSHPLSASFTT
4.65e+06 RLU	5.29e+06 RLU	182	207	CD71-binding FN3 domain of SEQ ID NO: 543 (designed binder) MLPAPKNLVVSRVTEDSARLSWTAPDAAFDSFFIGYLEPQPPGEAISLYVPGSERSYDLTGLKPGTEYNVTIQGVKGGFPSIPLVAVFTT
4.22e+06 RLU	4.22e+06 RLU	327	327	CD71-binding FN3 domain of SEQ ID NO: 545 (designed binder) MLPAPKNLVVSRVTEDSARLSWTAPDAAFDSFFIGYLEPQPPGEAISLVVPGSERSYDLTGLKPGTEYNVTIQGVKGGFPSNPLIATFTT
6.08e+06 RLU	4.94e+06 RLU	205	167	CD71-binding FN3 domain of SEQ ID NO: 539 (designed binder) MLPAPKNLVVSRVTEDSARLSWTAPDAAFDSFFIGYLEPQPPGEAIHLFVPGSERSYDLTGLKPGTEYNVTIQGVKGGFPSDPLHAAFTT
4.59e+06 RLU	1.45e+06 RLU	197	62	CD71-binding FN3 domain of SEQ ID NO: 532 (designed binder) MLPAPKNLVVSRVTEDSARLSWTAPDAAFDSFDINYDELSGEGEAIALFVPGSERSYDLTGLKPGTEYWVSIGGVKGGRFSEPLYARFTT
5.14e+06 RLU	2.42e+06 RLU	50	23	CD71-binding FN3 domain of SEQ ID NO: 537 (designed binder) MLPAPKNLVVSRVTEDSARLSWTAPDAAFDSFEIGYFENLYLGEAIVLTVPGSERSYDLTGLKPGTEYWVQIGGVKGGNWSAPLSAIFTT
4.16e+06 RLU	1.6e+06 RLU	586	226	CD71-binding FN3 domain of SEQ ID NO: 531 (designed binder) MLPAPKNLVVSRVTEDSARLSWTAPDAAFDSFEIGYFEYSYYGEAIVLTVPGSERSYDLTGLKPGTEYRVYIGGVKGGGWSRPLSAIFTT
5.85e+06 RLU	3.79e+06 RLU	306	198	CD71-binding FN3 domain of SEQ ID NO: 540 (designed binder) MLPAPKNLVVSRVTEDSARLSWTAPDAAFDSFYIAYAEPRPDGEAIILVVPGSERSYDLTGLKPGTEYSVLIHGVKGGLLSSPLDAGFTT
